From US20210322404A1, “FGFR REGULATION FOR THE TREATMENT OF VIRAL INFECTIONS” (ETH ZURICH, priority 2016, published 2021)

Key:
ZIKV = ZIKV infection of HaCaT cells; type: cell-based, Zika Virus
Description: FIGS. 6B and C relate to HaCaT cells that were serum starved overnight and then infected with the ZIKV strains Uganda (strain 976) (MOI=0.1) or French-Polynesia (PF13/251013-18) (MOI˜20). 2h after infection cells were treated with 20 ng/ml FGF7 or left untreated (CTRL). Culture medium+/−FGF7 was changed every day. 48h post infection cells were analyzed by immunofluorescence using a Flavivirus group-specific antibody (4G2) detecting the ZIKV envelope protein (ZIKV-Env) (B). Magnification bar in (B): 40 μm. Alternatively, cells were analyzed for ZIKV mRNA levels by qRT-PCR relative to RPL27 (C). Mean expression levels in vehicle-treated cells were set to 1. Representative out of four independent experiments are shown.
HaCaT cells were seeded on a 4-well tissue chamber on a PCA slide (5×10^4/chamber). After overnight serum starvation, they were infected with the ZIKV strains Uganda (strain 976) (MOI=0.1) or French-Polynesia (PF13/251013-18) (MOI˜20). 2h post infection cells were treated with FGF7 or left untreated. Culture media+/−FGF7 was changed every day. 48 hours post-infection cells were either analyzed by immunofluorescence using a Flavivirus group-specific antibody (4G2) detecting the ZIKV envelope protein (ZIKV-Env) or harvested and analyzed for ZIKV expression levels by qRT-PCR relative to human RPL27 (ZIKV primers: 5′-[…] -3′, SEQ ID NO: 49; 5′-[…] -3′, SEQ ID NO: 50). To investigate the effect of ZIKV and FGF7 on ISG expression, HaCaT cells were seeded in 6-well plates. After overnight serum starvation, confluent cells were infected with the ZIKV strain French-Polynesia (PF13/251013-18) (MOI˜20) in the presence or absence of FGF7 (20 ng/ml). 72 h post-infection cells were harvested and analyzed for OAS1 and MxA by qRT-PCR relative to RPL27.

HSV-1 = HSV-1 infection of HaCaT cells, virus load; type: cell-based, Herpes Simplex Virus type 1
Description: FIGS. 5A-C relate to HaCaT cells infected with HSV-1 (MOI=0.5) after overnight serum starvation, either alone or in combination with FGF7 (10 ng/ml) or IFNα (1000U/ml). 24 h after infection, virus load was determined by qPCR for the HSV-1 Glycoprotein B (Glyc-B) gene relative to the human β-actin gene (A) or visualized by immunofluorescence staining for HSV-1 Glycoprotein D (Glyc-D) (red) (B). The Glyc-B/β-actin gene ratio in HSV-1 infected cells was set to 1. Cell nuclei were stained with DAPI (blue). Magnification bar: 200 μm. (C) Transmission microscopy images of HaCaT cells taken 48 h after HSV-1 infection. […] Magnification bar: 80 μm. Representative data out of four experiments are shown.
FIGS. 5 D & E relate to overnight-starved HaCaT cells infected with HSV-1 (MOI=0.5) alone or in combination with IFNα (1000 U/ml), IFNα and FGF7 (10 ng/ml) (D); or FGF7 at different concentrations (E).
FIG. 5F pertains to serum-starved HaCaT cells that were infected with HSV-1 (MOI 0.5-1). After 4 h, infected cells were washed with PBS, followed by addition of fresh serum-free culture medium containing FGF7 (10 ng/ml).
FIGS. 5G-K pertains to overnight-starved HaCaT cells infected with HSV-1 (MOI=0.5) alone or in combination with FGF7, which was added at the indicated time points. 12 h after infection, cells were analyzed for Glyc-B DNA (H) and, RSAD2 and IRF7 mRNA levels by qPCR/qRT-PCR (I) or for ISG protein levels by western blotting (K). Vinculin was used as loading control.
FIGS. 7A-C relate to serum-starved HaCaT cells that were infected with HSV-1 in the presence or absence of FGF7 (10 ng/ml), NSC23766 (20 μM), the FGFR kinase inhibitors AZD4547 (1 μM) and BGJ398 (3.5 μM) (A) or IFNα (1000 U/ml) (B). […] Magnification bar: 500 μm. The Glyc-D positive area was quantified using digital pixel measurements (C, right). A representative out of two experiments is shown.
Frozen sections from mouse back skin were fixed with cold methanol, and unspecific binding sites were blocked with PBS/2% bovine serum albumin (BSA) (Sigma)/1% fish skin gelatin (Sigma)/0.05% Triton X-100 (Carl Roth GmbH, Karlsruhe, Germany) for 2 h at room temperature. Samples were then incubated overnight at 4° C. with anti-IRF7 or anti-K14 antibodies diluted in the same buffer. After three washes with 1×PBS/0.1% Tween 20 (Carl Roth GmbH), slides were incubated at room temperature (RT) for 4 h with secondary antibodies (AF555-conjugated anti-rabbit IgG and AF488-conjugated anti-mouse IgG) and DAPI (4′,6-diamidino-2-phenylindole dihydrochloride) (Sigma) as counter-stain, washed again and mounted with Mowiol (Hoechst, Frankfurt, Germany). Stained sections were photographed with a Leica SP1-2 confocal microscope equipped with a 63×0.6-1.32 NA (Iris) PL Apo Oil objective. For data acquisition the Leica Confocal Software (Leica, Wetzlar, Germany) was used. For immunofluorescence staining of cultured cells, they were washed with PBS and either fixed for 5 min with cold methanol for staining with antibodies against ZO-1 and IRF7, or with 4% paraformaldehyde (PFA) (Sigma) for 20 min at RT for Glyc-D staining. PFA-fixed cells were then incubated for 10 min with 0.5% Triton X-100 in PBS. After 1 h blocking in PBS containing 2% BSA, cells were stained with the primary antibodies for 1 h in the same blocking buffer. After three washes with PBS, cells were incubated with the secondary antibodies (AF555-conjugated anti-mouse IgG, AF488-conjugated anti-mouse IgG and AF555-conjugated anti-rabbit IgG) and DAPI.

ISGs = conditions: cultured lung airway epithelial cells, Prince et al.; cited from earlier work

B1: FGF7: recombinant human FGF7, the classical ligand of FGFR2b (protein, UniProt P21781 32-194, looked up)
Fibroblast growth factor 7: CNDMTPEQMATNVNCSSPERHTRSYDYMEGGDIRVRRLFCRTQWYLRIDKRGKVKGTQEMKNNYNIMEIRTVAVGIVAIKGVESEFYLAMNKEGKLYAKKECNEDCNFKELILENHYNTYASAKWTHNGGEMFVALNQKGIPVRGKKTKKEQKTAHFLPMAIT
Q: Which results are given for B1?
A: ZIKV gene expression (qRT-PCR relative to RPL27) (ZIKV; FGF7 20 ng/ml added 2 h after infection): efficient when added 2 h after the infection; number of cells expressing the ZIKV envelope protein (ZIKV; FGF7 20 ng/ml, 48 h post infection): increased the number of cells expressing the ZIKV envelope protein; increase of MxA and OAS1 expression during ZIKV infection (ZIKV; ZIKV French-Polynesia, FGF7 20 ng/ml, 72 h): strongly suppressed; viral DNA, FGF7 given after removal of the virus (HSV-1; HaCaT infected 4 h, virus removed, FGF7 10 ng/ml for 8 h): A strong increase in viral DNA; appearance of HSV-1 infected cells (transmission microscopy) (HSV-1; HaCaT, 48 h after infection): completely detached; IFNα-mediated reduction in viral DNA (HSV-1; HaCaT, HSV-1, IFNα 1000 U/ml and FGF7 10 ng/ml): partially reverted; levels of viral DNA at different FGF7 concentrations (HSV-1; HaCaT, HSV-1 MOI=0.5): induced the levels of viral DNA in a dose-dependent manner; HSV-1 glycoprotein D (Glyc-D) immunofluorescence staining (HSV-1; HaCaT, HSV-1 MOI=0.5, FGF7 10 ng/ml): increased strongly; viral glycoprotein B (Glyc-B) DNA (HSV-1; HaCaT, HSV-1 MOI=0.5, FGF7 10 ng/ml or IFNα 1000 U/ml): A strong increase in viral DNA; HSV-1 replication, FGF7 present only for 4h (HSV-1; HaCaT, analysis 12 h after infection): no longer promoted; HSV-1 replication, FGF7 added with the virus or 2h or 4h post infection (HSV-1; HaCaT, exposed to FGF7 for 12h, 10h or 8h): strongly promoted HSV-1 replication; expression of ISGs (ISGs): suppresses the expression of a limited number of ISGs
